Assay results published in patent publication US20210070855A1 (NANJING LEGEND BIOTECH, published 2021).
Where two headings read alike, the source gives them in different places.

What was measured:
human CD47 on cells [1] = target: T1, human CD47 on cells (human, UniProt Q08722 19-323); assay: flow cytometry, blocking of human SIRPα binding to CHO-K1/huCD47 cells; the box on the sheet is labelled EC50; unit taken from the axis
T1 construct: also called CHO-K1/huCD47; human CD47 over-expressed in CHO-K1 cells
Description: After 30 minutes incubation at 4° C., cells were washed twice with FACS buffer.

human CD47 on cells [2] = target: T1, human CD47 on cells; assay: flow cytometry on human red blood cells
[3] = target: T2, cynomolgus monkey CD47 on CHO-K1 cells (cynomolgus monkey, UniProt A0A5F8AK49 19-323 (rhesus entry)); assay: flow cytometry on CHO-K1/cyno CD47 cells; unit taken from the axis
T2 construct: whole, on cells; also called CHO-K1/cyno CD47; CHO-K1/cynoCD47
Description: (§1) Briefly, binding to cell-expressed cyno CD47 was evaluated on cynomolgus monkey CD47 over-expressing CHO cells. Anti-CD47 antibody dilution series was prepared in FACS buffer. CHO-K1/cynomolgus monkey CD47 cell were transferred to a 96-well U-bottom plate and add CD47 antibody dilution. After 30 minutes incubation at 4° C., cells were washed twice with FACS buffer. […] The cells were washed twice with wash buffer, and then analyzed for binding by using FACSCalibur (BD Bioscience, San Jose, Calif.) and Flowjo software.

[4] = target: T2, cynomolgus monkey CD47 on CHO-K1 cells; assay: as above; remark: listed apart in the source
Description: as §1

human CD47 on cells [5] = target: T1, human CD47 on cells; assay: flow cytometry on red blood cells; unit taken from the axis
human CD47 on cells [6] = target: T1, human CD47 on cells; assay: flow cytometry, blocking of human SIRPα binding to CHO-K1/huCD47 cells; the box on the sheet is labelled EC50; unit taken from the axis; remark: listed apart in the source
human CD47 on cells [7] = target: T1, human CD47 on cells; assay: flow cytometry, blocking of human SIRPα binding to CHO-K1/huCD47 cells; B6H12 is the positive control
human CD47 on cells [8] = target: T1, human CD47 on cells; assay: flow cytometry on CHO-K1/huCD47 cells (FL2-H channel); unit taken from the axis
human CD47 on cells [9] = target: T1, human CD47 on cells; assay: flow cytometry on CHO-K1/huCD47 cells; unit taken from the axis
Description: Binding to cell-expressed human CD47 was evaluated on human CD47 over-expressing CHO cells (GenScript, Cat #M00581). Anti-CD47 antibody dilution series was prepared in FACS buffer. CHO-K1/human CD47 cells were transferred to a 96-well U-bottom plate and anti-CD47 antibody dilution was added. […] The cells were then washed twice with wash buffer. Cells were analyzed for binding by FACSCalibur (BD Bioscience, San Jose, Calif.) and Flowjo software.

human CD47 on cells [10] = target: T1, human CD47 on cells; assay: flow cytometry on red blood cells
[11] = target: T2, cynomolgus monkey CD47 on CHO-K1 cells; assay: flow cytometry on CHO-K1/cynoCD47 cells; unit taken from the axis
Description: as §1

human CD47-His protein = target: T3, human CD47-His protein (human, UniProt Q08722 19-139, limits assumed); assay: SPR (Biacore T200), antibody captured, human CD47-His as analyte, 1:1 model
T3 construct: It includes the signal peptide and the membrane-spanning region, which a soluble protein would lack; not shown: His tag

human CD47 on cells [12] = target: T1, human CD47 on cells; assay: flow cytometry, blocking of human SIRPα binding to CHO-K1/huCD47 cells

B1: 107F11F10 (antibody, V domains shown)
VH: EVQLQQSGAEFVKPGASVKLSCTASGFNIEDTYMHWVKQRPEQGLEWIGMIDPANGKTKYGPRFQDKATVTADTSSNTANLQLSSLTSEDTAVYYCADGIGYYVGAMDYWGQGTSVTVSS
VL: DIQMNQSPSSLSASLGDTITITCHASQNINVWLSWYQQKPGNIPKLLIYKASNLHTGVPSRFSGSGSGTGFTLTISSLQPEDIATYYCQQGHSYPYTFGGGTKLEIK
notes: purified murine anti-CD47 hybridoma antibody; same VH and VL as 107F11B11 and 107F11C4
IC50 (human CD47 on cells [1]): 1.08 nM | EC50 (read off the curve) (human CD47 on cells [2]): ~0.01 µg/mL | EC50 [3]: 0.931 nM | EC50 [4]: 0.931 nM

B2: B6H12 (antibody, V domains shown)
VH: EVQLVESGGDLVKPGGSLKLSCAASGFTFSGYGMSWVRQTPDKRLEWVATITSGGTYTYYPDSVKGRFTISRDNAKNTLYLQIDSLKSEDTAIYFCARSLAGNAMDYWGQGTSVTVSS
VL: DIVMTQSPATLSVTPGDRVSLSCRASQTISDYLHWYQQKSHESPRLLIKFASQSISGIPSRFSGSGSGSDFTLSINSVEPEDVGVYYCQNGHGFPRTFGGGTKLEIK
EC50 (human CD47 on cells [5]): 7.74 nM | IC50 (human CD47 on cells [6]): 5.4 nM | IC50 (read off the curve) (human CD47 on cells [7]): ~6 nM | EC50 (human CD47 on cells [8]): 2.31 nM | EC50 [3]: 13.3 nM | EC50 [4]: 13.3 nM

B3: 108C10A6_Chimeric hIgG1 (antibody, V domains shown)
VH: QMQLQQSGPQLVRPGASVKISCKTSGYSFTHHWIHWMKQRPGQGLEWIGMIDPSDSETRLSQKFKDKATLTVDASSSTAYMQLNSPTSEDSALYFCARLGRYYFDYWGQGTTLTVSS
VL: NIVMTQSPRSMSMSVGERVTLSCKASENVGTYISWYQQKPDQSPKLLIYGASNRYTGVPDRFTGSGSGTDFTLTISTVQAEDLADYHCGESYGHLYTFGGGTKLEIKR
notes: also called CD47-108C10A6_Chimeric huIgG1; chimeric 108C10A6
IC50 (human CD47 on cells [6]): 1.42 nM | EC50 (human CD47 on cells [9]): 0.551 nM | EC50 (read off the curve) (human CD47 on cells [10]): ~3 nM | EC50 [11]: 0.491 nM

B4: 108VH4.M4_VL1.M1-hIgG4PE (antibody)
heavy: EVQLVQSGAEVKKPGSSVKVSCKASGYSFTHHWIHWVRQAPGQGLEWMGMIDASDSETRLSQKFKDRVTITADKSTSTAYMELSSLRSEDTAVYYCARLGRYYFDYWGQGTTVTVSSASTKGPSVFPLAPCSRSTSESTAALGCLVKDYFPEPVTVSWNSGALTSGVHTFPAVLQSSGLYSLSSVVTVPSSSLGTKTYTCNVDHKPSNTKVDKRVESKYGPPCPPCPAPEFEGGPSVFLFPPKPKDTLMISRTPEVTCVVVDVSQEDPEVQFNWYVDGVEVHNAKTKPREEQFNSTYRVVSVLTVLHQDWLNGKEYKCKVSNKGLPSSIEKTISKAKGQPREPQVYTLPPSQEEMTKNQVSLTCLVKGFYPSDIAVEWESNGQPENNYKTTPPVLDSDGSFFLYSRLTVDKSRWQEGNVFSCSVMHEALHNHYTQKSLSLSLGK
light: EIVLTQSPATLSLSPGERATLSCRASENVGTYISWYQQKPGQAPRLLIYGASNRYTGIPARFSGSGSGTDFTLTISSLEPEDFAVYYCGESYGHLYTFGGGTKVEIKRTVAAPSVFIFPPSDEQLKSGTASVVCLLNNFYPREAKVQWKVDNALQSGNSQESVTEQDSKDSTYSLSSTLTLSKADYEKHKVYACEVTHQGLSSPVTKSFNRGEC
notes: also called 108VH4.M4_VL1.M1-hlgG4PE; 108VH4.M4_VL1.M1-hIgG4PE-Ka
EC50 (human CD47 on cells [5]): 3.18 nM | EC50 (human CD47 on cells [9]): 0.586 nM | Kd (human CD47-His protein): 1.5 nM | koff (human CD47-His protein): 0.00046 s⁻¹ | kon (human CD47-His protein): 310000 M⁻¹ s⁻¹ | IC50 (read off the curve) (human CD47 on cells [12]): ~1 nM | EC50 [11]: 0.477 nM
